Assay results taken from the supplement of paper PMC7125110.
± gives the standard error. For some assays here: Variants at the floor of the assay were thinned out.

B1: glmS ribozyme (parent)
chain: AUAAAAGCGCCAGAACUACAGAAAUGUAGUUGACGAGGAGGAGGUUUAUCGAAUUUUCGGCGGAUGCCUCCAAA

Key:
Details in all cases: with glucosamine-6-phosphate
glucosamine-6-phosphate [1] = variants of: B1; assay: kcat; higher = faster cleavage; RNA array
How it was run: (§1)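 E. coli RNA polymerase transcribed barcoded ribozyme variants in situ on sequenced MiSeq chips, which were tracked via a hybridised Cy3 probe at 37 °C. Tiles were imaged over ~14 h after glucosamine-6-phosphate (40 μM to 10 mM) in HEPES/KCl/Mg(OAc)2 buffer was flowed in. Normalised per-tile medians were fit to one- or two-exponential decays for kobs, and kcat and KM came from weighted Michaelis–Menten fits.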

glucosamine-6-phosphate [2] = variants of: B1; assay: KM; higher = weaker cofactor use; RNA array
How it was run: as §1

glucosamine-6-phosphate [3] = variants of: B1; assay: self-cleavage kobs at 40 uM GlcN6P; higher = faster cleavage; RNA array
How it was run: as §1

glucosamine-6-phosphate [4] = variants of: B1; assay: self-cleavage kobs at 160 uM GlcN6P; higher = faster cleavage; RNA array
How it was run: as §1

glucosamine-6-phosphate [5] = variants of: B1; assay: self-cleavage kobs at 640 uM GlcN6P; higher = faster cleavage; RNA array
How it was run: as §1

glucosamine-6-phosphate [6] = variants of: B1; assay: self-cleavage kobs at 2500 uM GlcN6P; higher = faster cleavage; RNA array
How it was run: as §1

glucosamine-6-phosphate [7] = variants of: B1; assay: self-cleavage kobs at 10000 uM GlcN6P; higher = faster cleavage; RNA array
How it was run: as §1

Row | Variant | kcat (glucosamine-6-phosphate [1]) [s⁻¹] | KM (glucosamine-6-phosphate [2]) [µM] | self-cleavage kobs at 40 uM GlcN6P (glucosamine-6-phosphate [3]) [s⁻¹] | self-cleavage kobs at 160 uM GlcN6P (glucosamine-6-phosphate [4]) [s⁻¹] | self-cleavage kobs at 640 uM GlcN6P (glucosamine-6-phosphate [5]) [s⁻¹] | self-cleavage kobs at 2500 uM GlcN6P (glucosamine-6-phosphate [6]) [s⁻¹] | self-cleavage kobs at 10000 uM GlcN6P (glucosamine-6-phosphate [7]) [s⁻¹]
1 | A12U U65A | 0.0089 ± 0.0024 | 2460 ± 840 | 0.000192 ± 2.4e-05 | 0.000483 ± 5.8e-05 | 0.00176 ± 0.00027 | 0.00391 ± 0.00071 | 0.00799 ± 0.0012
2 | A36U U47G G51U | < 1e-05 |  |  |  |  |  | < 1e-05
3 | G32U A39U | 0.000723 ± 0.00022 | 8400 ± 3500 |  | 3.38e-05 ± 1e-05 | 5.81e-05 ± 5.6e-06 | 0.000148 ± 1.2e-05 | 0.000411 ± 3.1e-05
4 | U31C G40A | 0.00072 ± 0.00018 | 1300 ± 550 |  | 6.18e-05 ± 1.5e-05 | 0.000297 ± 4.4e-05 | 0.000647 ± 0.00012 | 0.000532 ± 0.0001
5 | U45G U46A | 0.00906 ± 0.0029 | 3870 ± 1700 | 0.000106 ± 1.7e-05 | 0.000641 ± 0.00023 | 0.000705 ± 0.00032 |  | 0.00686 ± 0.0011
6 | C58G G62U C70U | 2.66e-05 ± 1.1e-05 |  |  |  | 4.86e-05 ± 2.1e-05 |  | 
7 | G43U C67U | 5.98e-05 ± 3.8e-06 | 699 ± 280 |  |  |  | 5.2e-05 ± 1.1e-05 | 5.46e-05 ± 7.3e-06
8 | U47G | 0.0175 ± 0.00086 | 2130 ± 130 | 0.000326 ± 7.1e-06 | 0.00112 ± 9.8e-05 | 0.00389 ± 0.00017 | 0.00997 ± 0.00041 | 0.0142 ± 0.00058
9 | G32U U55G | 0.000798 ± 0.0002 | 3110 ± 1400 |  |  | 0.000151 ± 2.5e-05 | 0.000274 ± 6.5e-05 | 0.000652 ± 9e-05
10 | U30A G37C | < 1e-05 |  | < 1e-05 | < 1e-05 | < 1e-05 |  | 
11 | A14C G41A | 0.000497 ± 9e-05 | 3490 ± 1000 |  | 3.59e-05 ± 1.5e-05 | 6.95e-05 ± 1.3e-05 | 0.000234 ± 4.5e-05 | 0.000358 ± 6.2e-05
12 | G32C G41U | < 1e-05 |  | < 1e-05 | < 1e-05 |  |  | 
13 | U30G U45G | 0.00151 ± 0.00041 | 2200 ± 950 | 3.05e-05 ± 1.4e-05 | 7.13e-05 ± 2.2e-05 | 0.000382 ± 6.4e-05 | 0.00102 ± 0.00015 | 0.00103 ± 0.00021
14 | G43U G66A | 2.89e-05 ± 1.6e-06 | 431 ± 170 |  |  |  |  | 
15 | U30C G66A C67U | 6.3e-05 ± 4e-06 | 2940 ± 580 |  |  |  | 2.96e-05 ± 1.2e-05 | 4.86e-05 ± 1e-05
